Results on two substances are retold here after PMC8776730 (Nature Communications, 2022).

Series [1] concerns the target T1, FAP-α (Homo sapiens, UniProt Q12884).
T1 construct: purchased R&D SYSTEM
T1 sequence (Q12884 1-760): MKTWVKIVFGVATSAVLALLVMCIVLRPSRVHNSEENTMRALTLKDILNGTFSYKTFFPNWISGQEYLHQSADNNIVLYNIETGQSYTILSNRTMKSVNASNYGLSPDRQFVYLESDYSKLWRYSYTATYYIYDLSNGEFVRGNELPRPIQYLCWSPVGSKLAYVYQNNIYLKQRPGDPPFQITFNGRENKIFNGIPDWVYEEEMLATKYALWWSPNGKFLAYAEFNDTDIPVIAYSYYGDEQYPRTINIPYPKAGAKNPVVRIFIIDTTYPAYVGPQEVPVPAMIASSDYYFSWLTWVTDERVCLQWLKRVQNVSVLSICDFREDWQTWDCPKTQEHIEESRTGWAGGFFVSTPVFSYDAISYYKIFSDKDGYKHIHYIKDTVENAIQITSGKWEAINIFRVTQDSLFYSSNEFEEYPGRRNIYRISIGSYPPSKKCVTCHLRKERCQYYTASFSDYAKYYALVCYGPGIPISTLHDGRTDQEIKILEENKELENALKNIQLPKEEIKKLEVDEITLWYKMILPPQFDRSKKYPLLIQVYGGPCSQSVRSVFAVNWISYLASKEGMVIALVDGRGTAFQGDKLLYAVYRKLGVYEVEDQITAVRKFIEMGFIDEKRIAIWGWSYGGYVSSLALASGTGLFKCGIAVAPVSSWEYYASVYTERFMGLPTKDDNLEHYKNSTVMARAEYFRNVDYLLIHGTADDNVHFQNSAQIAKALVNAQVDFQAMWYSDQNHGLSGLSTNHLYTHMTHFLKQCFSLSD
Description: FAP-α tailoring (cleavage) followed by HPLC and MALDI-TOF. Format: biochemical. The settings on record: 100 μM molecule, FAP-α 50 μM, 12 h; buffer 50 mM Tris, 1 M NaCl, 1 mg/mL BSA, pH 7.5; HPLC (M3, M5), MALDI-TOF (M1). The source says:
To further investigate the FAP-α specific tailoring and BIVA probe assembly in situ simultaneously (Fig. 4a), the high-performance liquid chromatography (HPLC), TEM, and matrix-assisted laser desorption/ionization time-of-flight (MALDI-TOF) mass spectrometry were applied for the characterizations purpose. To specify the cutting of the response tailoring motif (Gly-Pro-Ala), pre-synthesized molecules of R-M3, M3 and M5 were set as controls. […] Comparing the residues peaks with R-M3, the primary sharp peak at 27.4 min can be identified by the R-M3 control (27.6 min). […] The retention time of M1 after co-incubation with inactivated FAP-α was similar to that of M3 (Supplementary Fig. 14). After hydrolyzed by FAP-α, the residues of M1 in situ assembled into nanofibers structures under the complex buffer (Fig. 4c and Supplementary Fig. 15). […] In order to further evaluate the specificity of M1 for different enzymes, including FAP-α, pepsin, pancreatin, lipase, and BSA, we used ThT (Thioflavin T) as a detection probe (Fig. 4e).
Fig. 4 The FAP-α specific molecule tailoring and inducing in situ assembly. a The illustration the working mechanism of BIVA probe based on FAP-α catalytic hydrolysis. b HPLC curves of M3 and M5 after incubation with FAP-α in buffer. R-M3, M3 and M5 were synthesized controls. The TEM image (c), and the MALDI-TOF (d), results of M1 after tailoring by FAP-α in buffer, the red arrows represent the assembled fibrils of M1 after incubation with FAP-α. e The enzyme specificity of M1 in buffer. Buffer: 50 mM Tris, 1 M NaCl, 1 mg/mL, BSA, pH 7.5; Concentration of M1 and M3: 100 μM; Concentration of FAP-α: 50 μM; incubation time: 12 h. […]

Series [2] in a line: Critical assembly concentration (CAC) by pyrene fluorescence probe. It is filed as physicochemical. The source says: In order to study the molecular design and their assembly behavior, we modular designed and synthesized seven molecules (Table 1), which respectively were BIVA probe: M1 (mPEG-GPAKLVFFGC(IR783)GRGD); the non- FAP-α tailoring molecule: M2 (mPEG-AGGKLVFFGC(IR783)GRGD) scrambled response tailoring motif of Gly-Pro-Ala with Ala-Gly-Gly; the non-labeling molecule of M1: M3 (mPEG-GPAKLVFFGCGRGD) removed IR783 labeling; FAP-α tailoring residue of M1: R-M1 (AKLVFFGC(IR783)GRGD); the non-targeting molecule: M4 (mPEG-GPAKLVFFGC(IR783)GDTG) scrambled targeting tailoring motif of Arg-Gly-Asp with Asp-Thr-Gly; the non-labeling molecule of M2: M5 (mPEG-AGGKLVFFGCGRGD) removed IR783 labeling; FAP-α tailoring residue of M3: R-M3 (AKLVFFGCGRGD). All the synthesized procedure (Supplementary Fig. 1) and characterizations of these seven molecules can be found in SI (Supplementary Figs. 2–8). […] Without IR783 labeling, molecules of M3 and M5 decreased the CAC value in solution relative to M1 and M2, which could be attributed to the proximity of the steric hindrance of hydrophilic IR783 to the self-assembly motif (Supplementary Fig. 9). […] The CAC was quantitatively calculated by fluorescence probe of pyrene.

For “mPEG-GPAKLVFFGCGRGD [M3, the non-labeling molecule of M1 (no IR783)]”, the “tailoring (cleavage) by FAP-α” value in series [1] is “totally cleaved”. Moreover, the “pyrene I1/I3” value in series [2] (conc 100 μM) is 1.163; in series [2] (conc 200 μM), 1.158; in series [2] (conc 300 μM) it was 1.141; in series [2] (conc 400 μM) it was 1.131; in series [2] (conc 500 μM) it was 1.152; in series [2] (conc 600 μM), 1.067. Further, the “pyrene I1/I3” value in series [2] (conc 700 μM) is given as 1.052; in series [2] (conc 800 μM) it was 1.029; in series [2] (conc 900 μM), 0.978.

As for mPEG-GPAKLVFFGC(IR783)GRGD [M1], in series [1], the “tailoring (cleavage) by FAP-α” value was “cut into two parts of R-M1 and PEG residue”. The “Critical assembly concentration (CAC)” value in series [2] (aqueous solution, analyzed based on pyrene fluorescence) is greater than 500 µM.
